According to US6028055A, “Receptor selective BNP” (Genetech, Inc., priority 1997, dated 2000):

T1: NPR-C (Homo sapiens, UniProt P17342)
T1 construct: expressed in transfected cells
T1 sequence (P17342 27-541): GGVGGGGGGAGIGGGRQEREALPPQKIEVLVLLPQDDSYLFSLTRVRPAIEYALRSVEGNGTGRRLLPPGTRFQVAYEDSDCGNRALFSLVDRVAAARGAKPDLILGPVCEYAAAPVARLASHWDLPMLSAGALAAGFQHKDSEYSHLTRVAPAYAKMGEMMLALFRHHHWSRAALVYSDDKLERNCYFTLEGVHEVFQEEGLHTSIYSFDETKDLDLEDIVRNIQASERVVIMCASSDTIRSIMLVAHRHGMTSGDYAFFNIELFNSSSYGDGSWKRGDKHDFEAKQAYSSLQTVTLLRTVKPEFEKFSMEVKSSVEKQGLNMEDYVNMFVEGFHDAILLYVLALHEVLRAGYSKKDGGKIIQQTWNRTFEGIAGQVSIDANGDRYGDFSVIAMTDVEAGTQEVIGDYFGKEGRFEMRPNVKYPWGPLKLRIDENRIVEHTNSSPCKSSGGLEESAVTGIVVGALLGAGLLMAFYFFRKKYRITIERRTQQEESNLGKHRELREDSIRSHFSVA

T2: NPR-A (Homo sapiens, UniProt P16066)
T2 construct: expressed in transfected cells
T2 sequence (P16066 33-1061): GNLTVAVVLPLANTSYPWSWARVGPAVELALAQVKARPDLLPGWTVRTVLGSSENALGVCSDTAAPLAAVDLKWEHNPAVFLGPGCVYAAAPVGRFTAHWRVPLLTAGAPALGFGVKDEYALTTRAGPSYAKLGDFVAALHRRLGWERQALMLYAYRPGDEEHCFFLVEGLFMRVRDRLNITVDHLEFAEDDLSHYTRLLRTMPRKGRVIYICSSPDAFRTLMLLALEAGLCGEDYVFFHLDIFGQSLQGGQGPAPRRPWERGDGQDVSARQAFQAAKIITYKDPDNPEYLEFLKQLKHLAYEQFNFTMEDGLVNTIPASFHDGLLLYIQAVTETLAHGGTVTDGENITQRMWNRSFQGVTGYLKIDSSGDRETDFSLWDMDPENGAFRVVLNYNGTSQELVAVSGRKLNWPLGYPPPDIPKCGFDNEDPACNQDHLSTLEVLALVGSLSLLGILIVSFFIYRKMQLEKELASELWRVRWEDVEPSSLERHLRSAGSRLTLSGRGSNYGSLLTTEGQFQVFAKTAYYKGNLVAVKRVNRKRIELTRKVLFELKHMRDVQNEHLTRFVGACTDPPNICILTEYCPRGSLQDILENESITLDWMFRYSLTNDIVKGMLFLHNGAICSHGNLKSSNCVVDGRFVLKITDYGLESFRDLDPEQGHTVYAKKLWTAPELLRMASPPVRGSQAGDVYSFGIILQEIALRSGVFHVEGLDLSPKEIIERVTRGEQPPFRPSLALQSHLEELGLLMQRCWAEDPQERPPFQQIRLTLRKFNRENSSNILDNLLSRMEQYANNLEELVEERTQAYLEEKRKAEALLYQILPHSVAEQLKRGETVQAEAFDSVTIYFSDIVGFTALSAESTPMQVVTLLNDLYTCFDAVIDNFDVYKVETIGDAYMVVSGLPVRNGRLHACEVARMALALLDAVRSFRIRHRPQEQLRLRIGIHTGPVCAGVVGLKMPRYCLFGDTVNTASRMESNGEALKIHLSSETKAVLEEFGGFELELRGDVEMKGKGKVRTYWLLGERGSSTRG

T3: NPR-C expressed in stable 293 cell lines (membranes) (human) (UniProt P17342)
T3 sequence: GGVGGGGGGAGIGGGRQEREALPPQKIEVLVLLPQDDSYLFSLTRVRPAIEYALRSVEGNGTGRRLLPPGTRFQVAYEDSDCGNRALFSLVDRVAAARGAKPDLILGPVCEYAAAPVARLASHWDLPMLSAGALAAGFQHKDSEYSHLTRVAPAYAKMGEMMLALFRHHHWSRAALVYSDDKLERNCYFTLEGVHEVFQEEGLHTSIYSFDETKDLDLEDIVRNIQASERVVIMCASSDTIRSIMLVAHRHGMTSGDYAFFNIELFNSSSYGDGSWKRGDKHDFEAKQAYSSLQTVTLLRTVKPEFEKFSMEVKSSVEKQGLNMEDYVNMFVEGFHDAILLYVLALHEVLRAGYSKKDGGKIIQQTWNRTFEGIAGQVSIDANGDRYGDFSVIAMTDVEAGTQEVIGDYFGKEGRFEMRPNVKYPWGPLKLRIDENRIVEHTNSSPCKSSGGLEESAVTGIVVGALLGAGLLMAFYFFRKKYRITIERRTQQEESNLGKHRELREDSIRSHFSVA

T4: NPR-C expressed in stable 293 cell lines (membranes) (human, UniProt P17342)
T4 sequence: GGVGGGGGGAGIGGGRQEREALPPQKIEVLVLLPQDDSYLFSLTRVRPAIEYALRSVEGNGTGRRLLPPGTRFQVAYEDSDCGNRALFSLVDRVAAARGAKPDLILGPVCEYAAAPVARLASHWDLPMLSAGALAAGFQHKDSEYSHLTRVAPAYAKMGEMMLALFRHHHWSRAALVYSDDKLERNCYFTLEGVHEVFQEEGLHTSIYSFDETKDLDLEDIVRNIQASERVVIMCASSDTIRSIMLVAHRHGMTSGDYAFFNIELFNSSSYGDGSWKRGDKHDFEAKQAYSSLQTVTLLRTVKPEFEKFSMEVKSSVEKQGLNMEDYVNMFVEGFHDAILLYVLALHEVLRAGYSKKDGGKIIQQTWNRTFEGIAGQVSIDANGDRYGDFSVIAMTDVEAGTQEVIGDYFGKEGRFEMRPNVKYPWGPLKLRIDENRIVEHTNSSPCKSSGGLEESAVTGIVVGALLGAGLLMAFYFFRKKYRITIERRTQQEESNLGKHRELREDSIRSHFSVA


Experiments:
[1] = target: T1, NPR-C; test: Measurement of binding affinities for NPR-C, membranes from stable 293 cell lines, 125I rat ANP displacement; parameters: unit not given here; settings: pure synthetic peptide vs 30 pM 125I rat ANP, 2 hours room temperature; duplicate points, three separate assays
Experimental: (§1) Membrane Preparation Membranes from stable 293 cell lines expressing NPR-A (Lowe and Fendly (1992) J. Biol. Chem.) or NPR-C (Cunningham et al. (1994) supra) were prepared by removing the cells from tissue culture plates with 0.5MM EDTA in PBS, centrifuging at 225×g, 4° C., and resuspending in 50 mM Hepes Ph7.4, 1 mM EDTA, 1 mM DTT, 250 mM Sucrose, 0.7 μg/ml Pepstatin A, 0.5 μg/ml Leupeptin, 1 mM PMSF, 1 μM Phosphoramidon. The resuspended cells were homogenized for 30 seconds with a Brinkman polytron on setting 5. The homogenate was centrifuged in 30 ml corex tubes in Sorval HB-4 rotor at 400×(1500 rpm) for 10 minutes at 4° C. The supernatant was centrifuged again in screw cap polycarbonate tubes (Beckman 355618) at 100,000×g (31,500 rpm) for 30 minutes, 4° C. in a Beckman TI60 rotor. The pellet was resuspended in 50 mM Hepes, 0.1 mM EDTA, 5.0 mM MgCl2, 100 mM NaCl, 0.7μg/ml Pepstatin A, 0.5 μg/ml Leupeptin, 1 mM PMSF, 1 μM Phosphoramidon and homogenized again with 15 strokes in a Dounce homogenizer (Wheaton 7 ml, #357542). The membranes were passed through a 22 gauge needle several times before aliquoting into eppendorf tubes for storage at -80° C.
(§2) The binding was allowed to go for 2 hours at room temperature in 96 well U-bottomed microtiter polypropylene plates (Sigma M-4029) with gentle agitation. The bound hormone was separated from the free using a Packard Filtermate 196 cell harvester and 1% polyethyleneimine-saturated Packard unifilter-96 GF/B plates by vacuum filtration. The plates were dried under vacuum chamber for 10 minutes prior to adding 40 μl Microscint-20 scintillant and counting in a Packard Topcount scintillation counter. Each affinity represents points measured in duplicate within three separate assays.

[2] = target: T2, NPR-A; test: Measurement of binding affinities for NPR-A, membranes from stable 293 cell lines, 125I rat ANP displacement; settings: pure synthetic peptide vs 30 pM 125I rat ANP, 2 hours room temperature; duplicate points, three separate assays
Experimental: as §1, §2

[3] = target: T3, NPR-C expressed in stable 293 cell lines (membranes) (human); test: competition with 30 pM 125I-rat ANP on membranes of 293 cells expressing NPR-C; unit not given
[4] = target: human natriuretic peptide receptor-A expressed in 293 cells (human) (UniProt P16066); test: competition with 30 pM 125I-rat ANP on membranes of 293 cells expressing NPR-A; unit not given
[5] = target: T4, NPR-C expressed in stable 293 cell …; test: competition with 30 pM 125I-rat ANP on membranes of 293 cells expressing NPR-C; unit not given
Experimental: as §1, with “µg/ml” for “μg/ml”, “µM” for “μM”, “MgCl_2,” for “MgCl2,”, “0.7µg/ml” for “0.7μg/ml”, “−80°” for “-80°”
as §2, with “µl” for “μl”

[6] = target: human natriuretic peptide receptor-A expressed in 293 cells (human, UniProt P16066); test: competition with 30 pM 125I-rat ANP on membranes of 293 cells expressing NPR-A; unit not given
Experimental: as §1, with “µg/ml” for “μg/ml”, “µM” for “μM”, “MgCl_2,” for “MgCl2,”, “0.7µg/ml” for “0.7μg/ml”, “−80°” for “-80°”
as §2, with “µl” for “μl”

hBNP Ser19Arg (SEQ ID NO: 4) (peptide), sequence (peptide): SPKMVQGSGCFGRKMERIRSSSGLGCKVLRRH

Molecule	NPR-C binding affinity (Assay #1) [1]	affinity (NPR-C) [3]	affinity (NPR-A) [4]	affinity (NPR-C) [5]	affinity (NPR-A) [6]	also measured
hBNP Gly23Phe, Leu24Trp, Gly25Arg (SPKMVQGSGCFGRKMERISSSSFWRCKVLRRH)	9363 ± 2067					NPR-A binding affinity (Assay #1) [2]: 378 ± 136
hBNP Ser19Arg Gly23Phe, Leu24Trp, Gly25Arg (SPKMVQGSGCFGRKMERIRSSSFWRCKVLRRH)	172,400 ± 120,096					NPR-A binding affinity (Assay #1) [2]: 287 ± 27
hBNP (SEQ ID NO: 1) (peptide)		1790	645			
hBNP Ser19Arg (SEQ ID NO: 4) (peptide)		95500	155			
hBNP Arg13Gly, Lys14Arg, Ser19Arg (SPKMVQGSGCFGGRMDRIRSSSGLGCKVLRRH)	28,370 ± 9,654					
hANP Gly16Arg [reference compound]	10,601 ± 1271					
hBNP Gly23Phe, Leu24Trp, Gly25Arg (SEQ ID NO: 2) (peptide)		9360	378			
hBNP Ser19Arg	95,498 ± 14,603					NPR-A binding affinity (Assay #1) [2]: 155 ± 55.3
SPKMVQGSGCFGGRMDRIRSSSGLGCKVLRRH [hBNP Arg13Gly, Lys14Arg, Ser19Arg (SEQ ID NO:49)]				28400	518	
SLRRSSCFGGRIDRIGAQSFWRCNSFRY [hANP Net12Ile, Gly20Phe, Leu21Trp, Gly22Arg (SEQ ID NO:50)]				295	507	
SLRRSSCFGGRIDRIGAQSGLGCNSFRY [hANP (SEQ ID NO: 51)]				198	43.5	
SPKMVQGSGCFGRKMERIRSSSFWRCKVLRRH [hBNP Ser19Arg, Gly23Phe, Leu24Trp, Gly25Arg (SEQ ID NO: 7)]		172000	287			
SLRRSSCFGGRIDRIRAQSGLGCNSFRY [hANP Gly16Arg (SEQ ID NO: 52)]				10600	17.2	
